The data set relates to NC(=O)c1ccc[n+]([C@@H]2O[C@H](COP(=O)([O-])OP(=O)(O)OC[C@H]3O[C@@H](n4cnc5c(N)ncnc54)[C@H](O)[C@@H]3O)[C@@H](O)[C@H]2O)c1. In words: Nucleotide cofactor specificity of AmEPV ligase in nick ligation. The settings on record: other: from double-reciprocal plot, sub-saturating enzyme; pH 7.5; 22.0 °C. The data set is classed as biochemical, Amsacta moorei entomopoxvirus. As to the method: Reaction mixtures (20 μl) containing 50 mM Tris-HCl (pH 7.5), 10 mM (NH4)2SO4, 5 mM DTT, 5 mM MgCl2, 1 pmol of ^32P-labeled nicked DNA, 32 ng of AmEPV ligase, and 50 μM of the indicated nucleotide were incubated for 30 min at 22° C. A control reaction contained no added nucleotide cofactor (none). The reaction products were resolved by polyacrylamide gel electrophoresis. An autoradiogram of the gel is shown.
A low level of nick ligation could be detected in the absence of added nucleotide (FIG. 6). Cofactor-independent ligation was attributed to pre-adenylated ligase in the enzyme preparation. […] Inclusion of NAD^+ in the reaction mixture stimulated nick ligation such that ˜90% of the input substrate molecules were sealed (FIG. 6). […] Indeed, none of the standard rNTPs or dNTPs were able to satisfy the requirement of AmEPV ligase for a high energy cofactor (FIG. 6). […] A Km of 9 μM NAD^+ was calculated from a double-reciprocal plot of the data.

Broadly, the Km is the substrate concentration at which the rate is half of its maximum.

Consider “AmEPV ligase (Betaentomopoxvirus amoorei)”, for which the Km was determined as 9 µM.

(Values after US6787341B2, “Pharmacological targeting of bacterial DNA ligase for treatment and prevention of bacterial infections” (priority 2001, dated 2004).)
